T1: Dic3, ODA intermediate chain (Tetrahymena thermophila, UniProt Q23FU1 1-670)
T1 sequence (looked up): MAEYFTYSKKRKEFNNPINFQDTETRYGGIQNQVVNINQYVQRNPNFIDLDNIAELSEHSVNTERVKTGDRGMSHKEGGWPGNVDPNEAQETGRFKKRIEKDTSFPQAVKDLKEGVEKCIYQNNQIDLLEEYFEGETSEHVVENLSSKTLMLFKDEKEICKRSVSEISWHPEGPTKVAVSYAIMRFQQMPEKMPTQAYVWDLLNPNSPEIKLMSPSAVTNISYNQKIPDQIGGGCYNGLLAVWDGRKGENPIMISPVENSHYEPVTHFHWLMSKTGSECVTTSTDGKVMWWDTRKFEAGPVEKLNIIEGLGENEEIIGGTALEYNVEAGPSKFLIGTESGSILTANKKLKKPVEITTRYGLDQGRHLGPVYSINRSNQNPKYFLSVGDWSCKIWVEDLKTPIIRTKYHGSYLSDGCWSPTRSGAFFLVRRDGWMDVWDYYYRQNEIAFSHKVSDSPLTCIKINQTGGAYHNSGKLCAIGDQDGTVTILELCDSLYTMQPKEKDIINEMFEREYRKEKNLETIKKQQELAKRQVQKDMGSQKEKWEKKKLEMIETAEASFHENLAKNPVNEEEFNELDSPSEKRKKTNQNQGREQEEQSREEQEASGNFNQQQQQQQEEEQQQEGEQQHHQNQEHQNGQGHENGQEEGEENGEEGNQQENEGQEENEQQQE

T2: Shulin (Q22YU3), recombinant full-length, C-terminal 2xStrep (Tetrahymena thermophila, UniProt Q22YU3 1-1200)
T2 sequence (looked up): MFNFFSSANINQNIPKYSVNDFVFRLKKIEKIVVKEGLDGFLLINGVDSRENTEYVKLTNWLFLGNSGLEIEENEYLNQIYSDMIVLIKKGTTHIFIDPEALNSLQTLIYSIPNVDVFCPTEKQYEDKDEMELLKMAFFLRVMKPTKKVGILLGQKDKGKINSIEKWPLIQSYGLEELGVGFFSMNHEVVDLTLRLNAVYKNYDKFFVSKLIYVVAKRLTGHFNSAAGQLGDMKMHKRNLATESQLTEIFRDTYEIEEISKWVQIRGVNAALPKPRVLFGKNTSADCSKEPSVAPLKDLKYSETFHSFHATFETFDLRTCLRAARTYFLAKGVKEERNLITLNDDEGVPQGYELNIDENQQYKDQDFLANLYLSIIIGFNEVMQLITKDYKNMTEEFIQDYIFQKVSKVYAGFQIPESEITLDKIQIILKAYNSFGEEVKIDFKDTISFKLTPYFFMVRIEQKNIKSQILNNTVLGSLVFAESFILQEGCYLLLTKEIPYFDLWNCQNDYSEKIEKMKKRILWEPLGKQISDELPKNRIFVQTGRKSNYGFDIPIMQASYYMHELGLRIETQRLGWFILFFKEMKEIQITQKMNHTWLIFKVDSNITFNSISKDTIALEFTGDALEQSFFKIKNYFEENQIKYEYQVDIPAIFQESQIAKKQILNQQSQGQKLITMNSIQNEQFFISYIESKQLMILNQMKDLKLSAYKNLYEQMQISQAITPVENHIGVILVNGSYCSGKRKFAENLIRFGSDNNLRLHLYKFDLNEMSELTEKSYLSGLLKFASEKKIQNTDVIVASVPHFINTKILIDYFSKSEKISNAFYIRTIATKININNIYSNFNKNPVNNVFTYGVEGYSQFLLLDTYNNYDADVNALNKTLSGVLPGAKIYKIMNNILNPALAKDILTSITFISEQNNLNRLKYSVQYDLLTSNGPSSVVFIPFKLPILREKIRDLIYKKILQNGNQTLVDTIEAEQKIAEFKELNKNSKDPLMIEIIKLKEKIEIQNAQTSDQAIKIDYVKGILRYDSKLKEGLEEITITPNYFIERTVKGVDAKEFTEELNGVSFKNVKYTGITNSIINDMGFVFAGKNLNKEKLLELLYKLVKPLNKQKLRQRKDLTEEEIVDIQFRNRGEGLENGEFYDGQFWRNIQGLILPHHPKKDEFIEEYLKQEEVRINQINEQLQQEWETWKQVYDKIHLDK

B1: Lc7b, roadblock ODA light chain (natural protein, Tetrahymena thermophila, UniProt Q22MV2 1-159, looked up)
chain: MIYKTSKEIQKSDQRIIQQRVENSIINNQIYQKSLKRKTSKRKVRHQANKKNFQKEMSEVEDTLNRIKTHKTVLGYLIVNSEGGVVRGAFKDEEESKNIANSIPLLTKKARSVVRDLDPTNDLVFLRIQTKLNEIMVAPDDEFSLIVIQTKGEKRDEND
B2: Dic2, ODA intermediate chain (natural protein, Tetrahymena thermophila, UniProt I7M008 1-667, looked up)
chain: MPPKQTKVVASRKTVMPISRAGRAQIRRKDSNTQNNMNDQGMEDEEIDQQREGMKNQYEQLTAQELNEDMPSKMLEPKNPQAPKNITVYDYYTRKFKTDELVDQMIVHFSMDGDYIWKESNEYKTQEEIRDTKKALIKEAMRKQESEEPGANHDEEAIKQTLRNKFNYNTRECQTINPSIRERGVSTEPPPSDTICGNITQWEIFDAYYAEIMKDHQIENKKKKEVDQDKKQDQSMYSTSFKRCCKIMERMVVQNDQEDKYHDYRYYWSQGDNLEAGKNEGHLLPIWRFSNEKQRKKNVTSICWNPLYPDLFAVSLGSYDFTKQRMGLICLYSLKNTTHPEYAFNCEAGVMCLDFHPKSAALLAVGLYDGTVLVYDIRNKHKKPIYQSTVRNQKHTDPVWQVKWNPDTSKNYNFYSISSDGRVMNWILMKNKLEPEEVILLRLVGKNEEESTLIGLACGLCFDFNKFEPHIFLVGTEEGKIHKCSRAYSGQYQETYNGHLLAVYKVKWNNFHPRTFISASADWTVRIWDSKYTSQIICFDLSMMVVDAVWAPYSSTVFACATMDKVQVYDLNVDKLNKLAEQKIVKQPKLTNLSFNYKDPILLVGDSHGGVTLVKLSPNLCKSGPEIKQTEDKKAMEEFKNVKIEDYEREKMENLLAVVSKWEREDA
B3: Lc9, Tctex-like ODA light chain (natural protein, Tetrahymena thermophila, UniProt A4VEB3 1-117, looked up)
chain: MGDTDKEYISEEVQKAIDDSVKQVFGIKDDSSQVTITYNKDKVNLWTQQIIDYTIRGLNKLGKHFKYCVTAILQQTNHAGISVQITAYQDTNTDGSLIQCYEINDIYAIVSVFAMAV
B4: Lc7, roadblock ODA light chain (natural protein, Tetrahymena thermophila, UniProt I7MHB1 1-133, looked up)
chain: MAQDINADDQLKQLSALEGANGYVIFNESGIPLKRHEKSISHEKAVHIAALVSDLWNVSKKVIQRDLKTPENDIEVIRLRTKHSYEYIITQSGDFTMLAIQLCGKAIEEAKKAAAAAAAAAVVQEENKEKEKK
B5: Lc8f (unnamed Lc8-like protein, UniProt ID Q22R86), ODA light chain (natural protein, Tetrahymena thermophila, UniProt Q22R86 1-111, looked up)
chain: MASNQQQKEDPKEQQQQYKTFMGARVLWPPECADDILEGAIRETQDALKKFEIAREGQKIAEHLKKYMDDHFDPYWHVFFGKNFGCQAVHNKNRFIYFYIEKTAFLMYQTQ
B6: Lc8, ODA light chain (natural protein, Tetrahymena thermophila, UniProt W7XJB1 1-111, looked up)
chain: MSDSDSDEGRVVEEPLPPHIIRFNDMAQHLLKKVIRQADVLIKENPQGLEKDIALNLVKFVKSQPEFKIGDGEWQCIIGKNFGCSLTFDANVLAFFDLLPSRKSILLFKSG
B7: Lc8d, ODA light chain (natural protein, Tetrahymena thermophila, UniProt Q24CE5 1-87, looked up)
chain: MNHEPEVKATDMEEDMIKRVKEIAINAVKEYKQEKQIAHYIKYEFDKIDGYGWNCIVGRNFGSHIIHQTKKYIFFKINELCLLLWKA
B8: Lc8e, ODA light chain (natural protein, Tetrahymena thermophila, UniProt Q24DI9 1-93, looked up)
chain: MGDHANEQIIDMPENSEMKSMKNDAFSQAKFAVENYKFENKISSHIKKFFDEKYGPNWHCVVGKHFNAYVSYDSKNFIFFYEGQLAILLYRKG

Holding throughout (assay): cryo-EM structure
Assay [1] has as its target T1, Dic3, ODA intermediate chain.
The target of assay [2] is B2.
Assay [3] concerns the target T2, Shulin (Q22YU3), recombinant ….
Assay [4] deals with B1.

Take B1: the binding result in assay [1] and in assay [2] was “binds” in each case.

For B2, in assay [3], the binding result is “binds”.

Turning to B3, the binding result in assay [1] and in assay [2] was “binds” in each case.

As for B4, the binding result in assay [1], in assay [4] and in assay [2] was “binds” each time.

For B5, the binding result in assay [1] and in assay [2] was “binds” throughout.

Take B6: the binding result in assay [1] and in assay [2] was “binds” each time.

As to B7, the binding result in assay [1], in assay [3] and in assay [2] was “binds” each time.

Consider B8, for which the binding result in assay [1], in assay [3] and in assay [2] was “binds” each time.
